Laboratory results as given in article PMC4405178 (Biochemistry, 2015).

Tests used:
[1] = molecular target: T1, C-terminally truncated Ste2p H94Y (Saccharomyces cerevisiae, UniProt D6VTK4 1-303, H94Y); experiment: flow cytometry on cells
T1 sequence (looked up): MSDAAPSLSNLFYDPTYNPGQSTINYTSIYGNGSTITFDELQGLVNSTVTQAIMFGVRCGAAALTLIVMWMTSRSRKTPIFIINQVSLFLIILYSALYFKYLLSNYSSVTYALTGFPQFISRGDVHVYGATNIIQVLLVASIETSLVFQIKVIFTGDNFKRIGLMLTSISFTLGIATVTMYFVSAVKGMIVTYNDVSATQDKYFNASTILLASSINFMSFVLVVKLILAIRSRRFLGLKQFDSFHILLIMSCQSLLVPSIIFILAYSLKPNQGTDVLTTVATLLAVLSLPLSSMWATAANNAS

[2] = molecular target: T2, full-length wild-type Ste2p (Saccharomyces cerevisiae, UniProt D6VTK4 1-431); experiment: flow cytometry on cells
T2 sequence (looked up): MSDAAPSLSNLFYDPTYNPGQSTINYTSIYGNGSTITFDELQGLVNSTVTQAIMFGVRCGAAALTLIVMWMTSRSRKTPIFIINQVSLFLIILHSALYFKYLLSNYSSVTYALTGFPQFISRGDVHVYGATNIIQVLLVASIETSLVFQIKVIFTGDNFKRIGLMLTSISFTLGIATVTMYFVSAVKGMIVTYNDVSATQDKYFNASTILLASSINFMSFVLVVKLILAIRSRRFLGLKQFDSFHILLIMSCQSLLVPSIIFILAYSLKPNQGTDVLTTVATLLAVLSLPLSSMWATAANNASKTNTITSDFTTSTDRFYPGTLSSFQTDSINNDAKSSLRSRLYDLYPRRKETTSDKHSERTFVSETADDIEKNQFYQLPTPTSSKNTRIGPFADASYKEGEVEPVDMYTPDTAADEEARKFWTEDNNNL

Kd [1]: 90 ± 12 nM
Kd [2]: 28 ± 4.7 nM
B1: [K^7(NBD),Nle^12] α-factor (peptide)
chain: WHWLQLKPGQPMY
modifications: NBD (7-nitrobenz-2-oxa-1,3-diazol-4-yl) conjugated to the lysine at position 7; norleucine at position 12 in place of methionine
